Measurements published in PMC10853069.

What was measured:
[1] = biological target: Taxol-stabilized microtubules polymerized from purified porcine tubulin (porcine) (UniProt P02550); assay: cross-linking
[2] = biological target: Taxol-stabilized microtubules polymerized from purified porcine tubulin (porcine) (UniProt P02550); assay: co-sedimentation

Row | Substance | MEI-2*tubulin crosslinked band, percent of WT [1] | Kd [2] | MEI-2*tubulin crosslinked band, percent of the WT fragment [1]
1 | MBP-MEI-2 full length 6KA (K8A-K9A K77A-K78A K274A-K275A) (from UniProt O44740 1-280) (natural protein) | 53% | 3.68 µM | 
2 | MBP-MEI-2 1–90 K77D-K78D (from UniProt O44740 1-90) (domain or fragment) |  |  | 87%
3 | MBP-MEI-2 1–90 K77A-K78A (from UniProt O44740 1-90) (domain or fragment) |  |  | 84%
4 | MBP-MEI-2 full length 6KD (K8D-K9D K77D-K78D K274D-K275D) (from UniProt O44740 1-280) (natural protein) | 6% | 6.15 µM | 
